The assay concerns the target T1, SIRPα a1d1 expressed on yeast (human, UniProt P78324 31-149, limits assumed).
T1 construct: domain: domain 1; also called SIRPα a1d1-expressing yeast
Kind of assay: flow cytometry titration on yeast expressing SIRPα a1d1. The text has this: FIG. 6B Graph showing binding of different CD47 species to SIRPα a1d1-expressing yeast in titration experiments. […] FIG. 6C Graph showing binding to SIRPα a2d1-expressing yeast in titration experiments (CD47 species are the same as in FIG. 6B).
High affinity CD47 variants were modified to produce diagnostic agents. […] In the original high affinity CD47 variants isolated, the cysteine at position 15 (C15) had been changed to a G (C15G variants). To enable coupling of high affinity CD47 variants to a fluorescent moiety, position 15 was reverted to a Cysteine (C15) or the Phenylalanine (F) at position 14 was changed to a Cysteine (F14C). Binding of such reagents to SIRPα was tested. […] As shown in these figures, the high affinity CD47 reagents can detect SIRPα expression on cells, both engineered and non-engineered, much better than the wildtype molecule. Indeed, as show in FIG. 6D, these reagents can perform as well as anti-SIRPα antibody in such assays.
A general note: A flow cytometer gives signals particle by particle.

T1 sequence (P78324 31-149 limits assumed): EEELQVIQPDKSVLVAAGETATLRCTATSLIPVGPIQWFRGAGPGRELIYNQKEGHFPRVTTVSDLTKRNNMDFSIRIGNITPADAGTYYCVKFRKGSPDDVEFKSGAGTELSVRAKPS

B1: biotinylated high affinity CD47 variant N3612 C15G (designed binder)
chain: WQPPLLFNKTKSVEFTFGNDTVVIPCFVTNMEAQNTTEVYVKWKFKGRDIYTFDGQANKSTVPTDFSSAKIEVSQLLKGDASLKMDKSDAVSHTGNYTCEVTELTREGETIIELKYRVVSGLNDIFEAQKIEWHE
modifications: biotin on the biotin acceptor peptide tag (BirA ligase)
notes: An 8x histidine tag is probably also present (Ni-NTA purification)
A word on the EC50 (read off the curve): it is the concentration at which the effect is half-maximal. Higher therefore signals a need for much substance. Take B1: the 50% effective concentration (EC50 (read off the curve)) is roughly 3 nM.

B2: N3612 F14C coupled to Alexa Fluor 647 (designed binder)
chain: WQPPLLFNKTKSVEFTCGNDTVVIPCFVTNMEAQNTTEVYVKWKFKGRDIYTFDGQANKSTVPTDFSSAKIEVSQLLKGDASLKMDKSDAVSHTGNYTCEVTELTREGETIIELKYRVVSHHHHHHHH
modifications: Alexa Fluor 647 maleimide on the cysteine at position 14 (F14C, mature CD47 numbering)
Take B2: the half-maximal effective concentration (EC50 (read off the curve)) is roughly 5 nM.

B3: N3612 C15 coupled to Alexa Fluor 647 (designed binder)
chain: WQPPLLFNKTKSVEFTFCNDTVVIPCFVTNMEAQNTTEVYVKWKFKGRDIYTFDGQANKSTVPTDFSSAKIEVSQLLKGDASLKMDKSDAVSHTGNYTCEVTELTREGETIIELKYRVVSHHHHHHHH
modifications: Alexa Fluor 647 (maleimide chemistry) on the cysteine at position 15 (mature CD47 numbering)
notes: The production of this form is not described separately
On to B3, for which the “EC50 (read off the curve)” value was roughly 5 nM.

The record behind these values is patent publication US20180127480A1 (Stanford University, published 2018).
